# Measured values from paper PMC9482650, “Quantitative fragmentomics allow affinity mapping of interactomes” (Nature Communications, 2022).
# Biological target: GORASP1, Q9BQQ3
# Test: holdup assay
# Set-up: key: below the threshold = too weak to quantify, mostly under pKd 3.1 to 4
# Conditions: plain residues with an end cap or a label only (N-terminal biotin on a linker: ado-ado)
# Chain of GORASP1, Q9BQQ3 (Q9BQQ3 1-208): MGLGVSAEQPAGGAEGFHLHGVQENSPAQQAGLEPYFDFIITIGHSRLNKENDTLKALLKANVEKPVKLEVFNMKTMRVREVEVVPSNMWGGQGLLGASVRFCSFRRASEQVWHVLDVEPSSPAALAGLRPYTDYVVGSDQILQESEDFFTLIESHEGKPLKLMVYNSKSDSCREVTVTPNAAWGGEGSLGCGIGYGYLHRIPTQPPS
row,Binder,pKd
1,"DSEEELPTRL [GRK6, P43250]",below the threshold
2,"FVFESRKEIL [TBPL1, P62380]",3.57

# Biological target: T1, APBA2_2, Q99767
# T1 sequence (Q99767 654-744, limits assumed, looked up): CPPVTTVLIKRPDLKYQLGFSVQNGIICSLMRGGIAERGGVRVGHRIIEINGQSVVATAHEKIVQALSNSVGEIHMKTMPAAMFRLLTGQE
# Test: holdup assay
# Set-up: key: below the threshold = too weak to quantify, mostly under pKd 3.1 to 4
# Conditions: plain residues with an end cap or a label only (N-terminal biotin on a linker: ado-ado)
row,Binder,pKd
1,"DSEEELPTRL [GRK6, P43250]",below the threshold
2,"FVFESRKEIL [TBPL1, P62380]",below the threshold

# Biological target: LIMK2, P53671
# Test: holdup assay
# Set-up: key: below the threshold = too weak to quantify, mostly under pKd 3.1 to 4
# Conditions: plain residues with an end cap or a label only (N-terminal biotin on a linker: ado-ado)
# Chain of LIMK2, P53671 (P53671 143-248): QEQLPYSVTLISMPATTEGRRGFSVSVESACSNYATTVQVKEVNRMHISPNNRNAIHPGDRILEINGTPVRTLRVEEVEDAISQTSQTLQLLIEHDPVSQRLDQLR
row,Binder,pKd
1,"DSEEELPTRL [GRK6, P43250]",below the threshold
2,"FVFESRKEIL [TBPL1, P62380]",below the threshold

# Biological target: T2, SNTG1, Q9NSN8
# T2 sequence (Q9NSN8 52-150, limits assumed, looked up): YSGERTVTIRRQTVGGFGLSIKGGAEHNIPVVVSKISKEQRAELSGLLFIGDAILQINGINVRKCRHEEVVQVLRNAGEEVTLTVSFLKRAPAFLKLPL
# Test: holdup assay
# Set-up: key: below the threshold = too weak to quantify, mostly under pKd 3.1 to 4
# Conditions: plain residues with an end cap or a label only (N-terminal biotin on a linker: ado-ado)
row,Binder,pKd
1,"DSEEELPTRL [GRK6, P43250]",below the threshold
2,"FVFESRKEIL [TBPL1, P62380]",below the threshold

# Biological target: T3, SIPA1L2, Q9P2F8
# T3 sequence (Q9P2F8 945-1036, limits assumed, looked up): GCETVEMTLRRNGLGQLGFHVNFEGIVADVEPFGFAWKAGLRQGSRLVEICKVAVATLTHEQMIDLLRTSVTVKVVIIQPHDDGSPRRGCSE
# Test: holdup assay
# Set-up: key: below the threshold = too weak to quantify, mostly under pKd 3.1 to 4
# Conditions: plain residues with an end cap or a label only (N-terminal biotin on a linker: ado-ado)
row,Binder,pKd
1,"DSEEELPTRL [GRK6, P43250]",below the threshold
2,"FVFESRKEIL [TBPL1, P62380]",below the threshold

# Biological target: NHERF4_2, Q86UT5
# Test: holdup assay
# Set-up: key: below the threshold = too weak to quantify, mostly under pKd 3.1 to 4
# Conditions: plain residues with an end cap or a label only (N-terminal biotin on a linker: ado-ado)
# Chain of NHERF4_2, Q86UT5 (Q86UT5 220-308): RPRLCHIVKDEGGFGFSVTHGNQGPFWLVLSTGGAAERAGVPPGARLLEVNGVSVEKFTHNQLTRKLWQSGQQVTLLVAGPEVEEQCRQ
row,Binder,pKd
1,"DSEEELPTRL [GRK6, P43250]",below the threshold
2,"FVFESRKEIL [TBPL1, P62380]",below the threshold

# Biological target: SCRIB_3, Q14160
# Test: holdup assay
# Set-up: key: below the threshold = too weak to quantify, mostly under pKd 3.1 to 4
# Conditions: plain residues with an end cap or a label only (N-terminal biotin on a linker: ado-ado)
# Chain of SCRIB_3, Q14160 (Q14160 999-1103): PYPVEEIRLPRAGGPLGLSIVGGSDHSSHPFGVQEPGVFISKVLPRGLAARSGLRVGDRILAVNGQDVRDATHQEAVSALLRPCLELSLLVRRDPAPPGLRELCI
row,Binder,pKd
1,"DSEEELPTRL [GRK6, P43250]",3.53
2,"FVFESRKEIL [TBPL1, P62380]",below the threshold

# Biological target: T4, FRMPD1, Q5SYB0
# T4 sequence (Q5SYB0 52-145, limits assumed, looked up): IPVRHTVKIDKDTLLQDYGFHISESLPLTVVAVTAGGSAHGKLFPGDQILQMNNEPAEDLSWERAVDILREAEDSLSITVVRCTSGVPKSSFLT
# Test: holdup assay
# Set-up: key: below the threshold = too weak to quantify, mostly under pKd 3.1 to 4
# Conditions: plain residues with an end cap or a label only (N-terminal biotin on a linker: ado-ado)
row,Binder,pKd
1,"DSEEELPTRL [GRK6, P43250]",below the threshold
2,"FVFESRKEIL [TBPL1, P62380]",below the threshold

# Biological target: T5, PDZD7_3, Q9H5P4
# T5 sequence (Q9H5P4 857-944, limits assumed, looked up): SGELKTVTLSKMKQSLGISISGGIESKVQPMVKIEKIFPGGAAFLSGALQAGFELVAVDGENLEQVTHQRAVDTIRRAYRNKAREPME
# Test: holdup assay
# Set-up: key: below the threshold = too weak to quantify, mostly under pKd 3.1 to 4
# Conditions: plain residues with an end cap or a label only (N-terminal biotin on a linker: ado-ado)
row,Binder,pKd
1,"DSEEELPTRL [GRK6, P43250]",4.18
2,"FVFESRKEIL [TBPL1, P62380]",3.99

# Biological target: T6, DFNB31_1, Q9P202
# T6 sequence (Q9P202 135-233, limits assumed, looked up): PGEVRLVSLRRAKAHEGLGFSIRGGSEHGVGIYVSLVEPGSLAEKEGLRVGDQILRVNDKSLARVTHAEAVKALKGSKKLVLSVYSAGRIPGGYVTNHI
# Test: holdup assay
# Set-up: key: below the threshold = too weak to quantify, mostly under pKd 3.1 to 4
# Conditions: plain residues with an end cap or a label only (N-terminal biotin on a linker: ado-ado)
row,Binder,pKd
1,"DSEEELPTRL [GRK6, P43250]",below the threshold
2,"FVFESRKEIL [TBPL1, P62380]",below the threshold

# Biological target: TJP2_1, Q9UDY2
# Test: holdup assay
# Set-up: key: below the threshold = too weak to quantify, mostly under pKd 3.1 to 4
# Conditions: plain residues with an end cap or a label only (N-terminal biotin on a linker: ado-ado)
# Chain of TJP2_1, Q9UDY2 (Q9UDY2 24-128): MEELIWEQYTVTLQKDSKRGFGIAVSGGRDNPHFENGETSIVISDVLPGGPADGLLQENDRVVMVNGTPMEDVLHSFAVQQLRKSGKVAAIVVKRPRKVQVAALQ
row,Binder,pKd
1,"DSEEELPTRL [GRK6, P43250]",below the threshold
2,"FVFESRKEIL [TBPL1, P62380]",below the threshold

# Biological target: MAGI1_2, Q96QZ7
# Test: holdup assay
# Set-up: key: below the threshold = too weak to quantify, mostly under pKd 3.1 to 4
# Conditions: plain residues with an end cap or a label only (N-terminal biotin on a linker: ado-ado)
# Chain of MAGI1_2, Q96QZ7 (Q96QZ7 456-580): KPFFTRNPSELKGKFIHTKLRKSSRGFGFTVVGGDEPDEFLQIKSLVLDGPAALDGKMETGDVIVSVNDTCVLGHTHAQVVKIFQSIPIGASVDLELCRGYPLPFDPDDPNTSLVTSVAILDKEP
row,Binder,pKd
1,"DSEEELPTRL [GRK6, P43250]",below the threshold
2,"FVFESRKEIL [TBPL1, P62380]",below the threshold

# Biological target: T7, CARD11, Q9BXL7
# T7 sequence (Q9BXL7 662-765, limits assumed, looked up): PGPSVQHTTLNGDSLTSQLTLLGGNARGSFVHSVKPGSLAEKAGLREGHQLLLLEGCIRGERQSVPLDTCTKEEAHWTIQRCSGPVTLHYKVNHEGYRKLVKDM
# Test: holdup assay
# Set-up: key: below the threshold = too weak to quantify, mostly under pKd 3.1 to 4
# Conditions: plain residues with an end cap or a label only (N-terminal biotin on a linker: ado-ado)
row,Binder,pKd
1,"DSEEELPTRL [GRK6, P43250]",below the threshold
2,"FVFESRKEIL [TBPL1, P62380]",below the threshold

# Biological target: T8, SNTA1, Q13424
# T8 sequence (Q13424 82-180, limits assumed, looked up): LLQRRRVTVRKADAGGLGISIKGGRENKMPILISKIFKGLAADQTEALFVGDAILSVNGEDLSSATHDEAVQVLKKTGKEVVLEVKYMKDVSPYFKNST
# Test: holdup assay
# Set-up: key: below the threshold = too weak to quantify, mostly under pKd 3.1 to 4
# Conditions: plain residues with an end cap or a label only (N-terminal biotin on a linker: ado-ado)
row,Binder,pKd
1,"DSEEELPTRL [GRK6, P43250]",below the threshold
2,"FVFESRKEIL [TBPL1, P62380]",below the threshold

# Biological target: T9, HTRA3, P83110
# T9 sequence (P83110 354-453, limits assumed, looked up): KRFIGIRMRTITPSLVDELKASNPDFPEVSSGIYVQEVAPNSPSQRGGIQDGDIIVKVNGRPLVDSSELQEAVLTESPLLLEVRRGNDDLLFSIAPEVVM
# Test: holdup assay
# Set-up: key: below the threshold = too weak to quantify, mostly under pKd 3.1 to 4
# Conditions: plain residues with an end cap or a label only (N-terminal biotin on a linker: ado-ado)
row,Binder,pKd
1,"DSEEELPTRL [GRK6, P43250]",below the threshold
2,"FVFESRKEIL [TBPL1, P62380]",below the threshold

# Biological target: T10, TJP3_3, O95049
# T10 sequence (O95049 375-456, limits assumed, looked up): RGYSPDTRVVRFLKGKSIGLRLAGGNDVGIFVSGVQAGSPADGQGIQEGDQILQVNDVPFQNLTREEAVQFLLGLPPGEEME
# Test: holdup assay
# Set-up: key: below the threshold = too weak to quantify, mostly under pKd 3.1 to 4
# Conditions: plain residues with an end cap or a label only (N-terminal biotin on a linker: ado-ado)
row,Binder,pKd
1,"DSEEELPTRL [GRK6, P43250]",below the threshold
2,"FVFESRKEIL [TBPL1, P62380]",below the threshold

# Biological target: T11, ARHGAP21, Q5T5U3
# T11 sequence (Q5T5U3 45-169, limits assumed, looked up): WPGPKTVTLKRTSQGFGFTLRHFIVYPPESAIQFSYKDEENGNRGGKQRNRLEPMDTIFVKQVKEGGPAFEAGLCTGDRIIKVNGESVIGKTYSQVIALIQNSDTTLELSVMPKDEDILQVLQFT
# Test: holdup assay
# Set-up: key: below the threshold = too weak to quantify, mostly under pKd 3.1 to 4
# Conditions: plain residues with an end cap or a label only (N-terminal biotin on a linker: ado-ado)
row,Binder,pKd
1,"DSEEELPTRL [GRK6, P43250]",4.22
2,"FVFESRKEIL [TBPL1, P62380]",3.83

# Biological target: TJP1_2, Q07157
# Test: holdup assay
# Set-up: key: below the threshold = too weak to quantify, mostly under pKd 3.1 to 4
# Conditions: plain residues with an end cap or a label only (N-terminal biotin on a linker: ado-ado)
# Chain of TJP1_2, Q07157 (Q07157 181-274): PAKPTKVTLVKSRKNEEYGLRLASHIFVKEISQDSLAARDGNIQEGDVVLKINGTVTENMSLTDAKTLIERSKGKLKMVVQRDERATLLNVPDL
row,Binder,pKd
1,"DSEEELPTRL [GRK6, P43250]",below the threshold
2,"FVFESRKEIL [TBPL1, P62380]",below the threshold

# Biological target: PARD3_3, Q8TEW0
# Test: holdup assay
# Set-up: key: below the threshold = too weak to quantify, mostly under pKd 3.1 to 4
# Conditions: plain residues with an end cap or a label only (N-terminal biotin on a linker: ado-ado)
# Chain of PARD3_3, Q8TEW0 (Q8TEW0 582-685): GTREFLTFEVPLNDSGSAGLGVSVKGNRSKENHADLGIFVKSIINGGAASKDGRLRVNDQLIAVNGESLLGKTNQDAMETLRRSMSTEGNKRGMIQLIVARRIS
row,Binder,pKd
1,"DSEEELPTRL [GRK6, P43250]",4.09
2,"FVFESRKEIL [TBPL1, P62380]",below the threshold

# Biological target: SCRIB_1, Q14160
# Test: holdup assay
# Set-up: key: below the threshold = too weak to quantify, mostly under pKd 3.1 to 4
# Conditions: plain residues with an end cap or a label only (N-terminal biotin on a linker: ado-ado)
# Chain of SCRIB_1, Q14160 (Q14160 718-814): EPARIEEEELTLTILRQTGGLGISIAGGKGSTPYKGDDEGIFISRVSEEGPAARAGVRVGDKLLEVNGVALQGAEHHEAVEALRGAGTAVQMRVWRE
row,Binder,pKd
1,"DSEEELPTRL [GRK6, P43250]",3.53
2,"FVFESRKEIL [TBPL1, P62380]",below the threshold

# Biological target: GRIP2_7, Q9C0E4
# Test: holdup assay
# Set-up: key: below the threshold = too weak to quantify, mostly under pKd 3.1 to 4
# Conditions: plain residues with an end cap or a label only (N-terminal biotin on a linker: ado-ado)
# Chain of GRIP2_7, Q9C0E4 (Q9C0E4 934-1023): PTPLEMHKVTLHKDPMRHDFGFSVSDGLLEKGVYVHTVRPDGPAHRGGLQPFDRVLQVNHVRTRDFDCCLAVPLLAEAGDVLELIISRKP
row,Binder,pKd
1,"DSEEELPTRL [GRK6, P43250]",below the threshold
2,"FVFESRKEIL [TBPL1, P62380]",below the threshold

# Biological target: T12, PARD3B_1, Q8TEW8
# T12 sequence (Q8TEW8 196-299, limits assumed, looked up): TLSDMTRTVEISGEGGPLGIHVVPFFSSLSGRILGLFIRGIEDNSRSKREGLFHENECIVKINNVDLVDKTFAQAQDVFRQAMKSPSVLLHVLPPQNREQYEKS
# Test: holdup assay
# Set-up: key: below the threshold = too weak to quantify, mostly under pKd 3.1 to 4
# Conditions: plain residues with an end cap or a label only (N-terminal biotin on a linker: ado-ado)
row,Binder,pKd
1,"DSEEELPTRL [GRK6, P43250]",4.51
2,"FVFESRKEIL [TBPL1, P62380]",4.12

# Biological target: GRIP2_3, Q9C0E4
# Test: holdup assay
# Set-up: key: below the threshold = too weak to quantify, mostly under pKd 3.1 to 4
# Conditions: plain residues with an end cap or a label only (N-terminal biotin on a linker: ado-ado)
# Chain of GRIP2_3, Q9C0E4 (Q9C0E4 238-339): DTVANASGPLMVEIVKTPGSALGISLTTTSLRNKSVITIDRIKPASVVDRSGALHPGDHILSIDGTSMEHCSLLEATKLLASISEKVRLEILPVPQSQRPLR
row,Binder,pKd
1,"DSEEELPTRL [GRK6, P43250]",below the threshold
2,"FVFESRKEIL [TBPL1, P62380]",below the threshold

# Biological target: T13, DFNB31_3, Q9P202
# T13 sequence (Q9P202 811-907, limits assumed, looked up): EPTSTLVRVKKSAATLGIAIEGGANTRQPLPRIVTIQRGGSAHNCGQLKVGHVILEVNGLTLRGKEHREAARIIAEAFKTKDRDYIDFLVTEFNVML
# Test: holdup assay
# Set-up: key: below the threshold = too weak to quantify, mostly under pKd 3.1 to 4
# Conditions: plain residues with an end cap or a label only (N-terminal biotin on a linker: ado-ado)
row,Binder,pKd
1,"DSEEELPTRL [GRK6, P43250]",3.53
2,"FVFESRKEIL [TBPL1, P62380]",below the threshold
